Reference: US20180236024A1 (STC UNM, published 2018)

Assays:
NOD2 (full length) = biological target: T1, NOD2 (full length) (UniProt Q9HC29 1-1040); test: co-IP, starved HT29 cells and HEK293T cells
T1 construct: also called Flag-NOD2; endogenous NOD2

RIG-I = biological target: T2, RIG-I (UniProt O95786 1-925); test: co-IP with anti-GFP, GFP-IRGM and Flag-Rig-I
T2 construct: also called Flag-Rig-I
T2 sequence (looked up): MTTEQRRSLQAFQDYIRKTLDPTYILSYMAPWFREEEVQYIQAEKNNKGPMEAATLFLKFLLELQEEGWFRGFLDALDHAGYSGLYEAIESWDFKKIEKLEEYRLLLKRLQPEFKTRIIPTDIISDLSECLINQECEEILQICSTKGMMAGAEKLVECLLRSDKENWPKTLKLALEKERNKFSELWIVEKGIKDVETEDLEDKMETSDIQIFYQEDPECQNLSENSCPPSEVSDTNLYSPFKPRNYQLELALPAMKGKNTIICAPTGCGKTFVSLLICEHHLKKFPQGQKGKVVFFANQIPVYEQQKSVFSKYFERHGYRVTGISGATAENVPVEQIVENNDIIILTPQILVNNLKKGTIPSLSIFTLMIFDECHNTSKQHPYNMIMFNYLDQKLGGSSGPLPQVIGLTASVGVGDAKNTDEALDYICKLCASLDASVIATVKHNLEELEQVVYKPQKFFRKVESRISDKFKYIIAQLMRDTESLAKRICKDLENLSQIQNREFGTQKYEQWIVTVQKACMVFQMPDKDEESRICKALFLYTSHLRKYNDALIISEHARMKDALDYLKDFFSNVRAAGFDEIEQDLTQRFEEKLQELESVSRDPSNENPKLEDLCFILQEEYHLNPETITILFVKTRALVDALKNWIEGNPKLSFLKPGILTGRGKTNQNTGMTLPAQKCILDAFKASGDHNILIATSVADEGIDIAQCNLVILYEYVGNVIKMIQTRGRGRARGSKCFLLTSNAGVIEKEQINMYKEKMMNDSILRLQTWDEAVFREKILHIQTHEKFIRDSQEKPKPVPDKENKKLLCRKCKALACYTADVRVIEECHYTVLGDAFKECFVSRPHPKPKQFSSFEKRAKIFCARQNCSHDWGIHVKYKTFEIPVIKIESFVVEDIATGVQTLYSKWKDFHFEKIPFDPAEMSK

NOD1 = biological target: T3, NOD1 (UniProt Q9Y239 1-953); test: co-IP with anti-GFP, GFP-IRGM and Flag-NOD1
T3 construct: also called Flag-NOD1
T3 sequence (looked up): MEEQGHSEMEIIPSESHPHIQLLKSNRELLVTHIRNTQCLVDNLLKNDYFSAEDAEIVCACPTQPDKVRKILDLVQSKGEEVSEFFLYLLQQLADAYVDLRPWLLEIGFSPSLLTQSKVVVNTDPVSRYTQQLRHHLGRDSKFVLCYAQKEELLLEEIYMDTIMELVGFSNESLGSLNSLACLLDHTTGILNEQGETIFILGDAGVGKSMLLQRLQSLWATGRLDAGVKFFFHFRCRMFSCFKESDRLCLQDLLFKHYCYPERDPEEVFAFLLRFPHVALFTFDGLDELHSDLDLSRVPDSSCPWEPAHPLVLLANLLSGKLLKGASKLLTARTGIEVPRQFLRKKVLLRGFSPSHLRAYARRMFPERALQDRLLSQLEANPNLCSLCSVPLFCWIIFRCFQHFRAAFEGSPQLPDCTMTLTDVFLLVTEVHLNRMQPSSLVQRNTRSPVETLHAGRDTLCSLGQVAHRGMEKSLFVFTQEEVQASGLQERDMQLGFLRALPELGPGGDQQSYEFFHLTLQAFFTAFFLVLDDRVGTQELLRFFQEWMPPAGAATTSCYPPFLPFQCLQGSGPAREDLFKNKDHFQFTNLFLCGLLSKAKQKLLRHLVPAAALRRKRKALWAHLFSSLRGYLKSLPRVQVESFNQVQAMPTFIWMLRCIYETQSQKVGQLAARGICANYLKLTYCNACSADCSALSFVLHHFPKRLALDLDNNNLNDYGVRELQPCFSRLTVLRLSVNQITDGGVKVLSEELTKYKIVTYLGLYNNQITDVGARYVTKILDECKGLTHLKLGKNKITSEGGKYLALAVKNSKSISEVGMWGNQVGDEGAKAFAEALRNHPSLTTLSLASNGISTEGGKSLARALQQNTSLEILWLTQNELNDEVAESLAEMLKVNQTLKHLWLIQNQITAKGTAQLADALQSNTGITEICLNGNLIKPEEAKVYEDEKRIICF

[1] = biological target: the molecule itself; test: co-IP of differently tagged IRGM, HEK293T cells
Beclin 1 = biological target: T4, Beclin 1 (UniProt Q14457 1-450); test: co-immunoprecipitation, HEK293T lysates
T4 construct: Flag-tagged overexpressed or endogenous, depending on the experiment; also called Flag-Beclin 1; Flag-Beclin-1

ATG14L = biological target: T5, ATG14L (UniProt Q6ZNE5 1-492); test: co-IP of Flag-IRGM and endogenous ATG14
T5 construct: also called endogenous ATG14
T5 sequence (Q6ZNE5 whole entry): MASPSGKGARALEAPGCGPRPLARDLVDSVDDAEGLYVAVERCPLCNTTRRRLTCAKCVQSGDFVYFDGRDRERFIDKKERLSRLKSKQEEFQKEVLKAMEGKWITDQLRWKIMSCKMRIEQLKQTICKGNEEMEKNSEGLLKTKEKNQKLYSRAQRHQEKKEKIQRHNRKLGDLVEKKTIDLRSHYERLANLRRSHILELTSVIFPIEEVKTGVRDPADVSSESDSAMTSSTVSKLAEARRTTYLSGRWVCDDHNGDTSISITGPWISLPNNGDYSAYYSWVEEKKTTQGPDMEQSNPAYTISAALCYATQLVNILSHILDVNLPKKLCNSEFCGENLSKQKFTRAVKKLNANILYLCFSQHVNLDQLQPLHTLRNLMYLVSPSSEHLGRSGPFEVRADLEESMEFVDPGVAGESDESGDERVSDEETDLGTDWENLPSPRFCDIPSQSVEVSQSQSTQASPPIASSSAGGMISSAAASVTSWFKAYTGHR

T1 sequence (Q9HC29 whole entry): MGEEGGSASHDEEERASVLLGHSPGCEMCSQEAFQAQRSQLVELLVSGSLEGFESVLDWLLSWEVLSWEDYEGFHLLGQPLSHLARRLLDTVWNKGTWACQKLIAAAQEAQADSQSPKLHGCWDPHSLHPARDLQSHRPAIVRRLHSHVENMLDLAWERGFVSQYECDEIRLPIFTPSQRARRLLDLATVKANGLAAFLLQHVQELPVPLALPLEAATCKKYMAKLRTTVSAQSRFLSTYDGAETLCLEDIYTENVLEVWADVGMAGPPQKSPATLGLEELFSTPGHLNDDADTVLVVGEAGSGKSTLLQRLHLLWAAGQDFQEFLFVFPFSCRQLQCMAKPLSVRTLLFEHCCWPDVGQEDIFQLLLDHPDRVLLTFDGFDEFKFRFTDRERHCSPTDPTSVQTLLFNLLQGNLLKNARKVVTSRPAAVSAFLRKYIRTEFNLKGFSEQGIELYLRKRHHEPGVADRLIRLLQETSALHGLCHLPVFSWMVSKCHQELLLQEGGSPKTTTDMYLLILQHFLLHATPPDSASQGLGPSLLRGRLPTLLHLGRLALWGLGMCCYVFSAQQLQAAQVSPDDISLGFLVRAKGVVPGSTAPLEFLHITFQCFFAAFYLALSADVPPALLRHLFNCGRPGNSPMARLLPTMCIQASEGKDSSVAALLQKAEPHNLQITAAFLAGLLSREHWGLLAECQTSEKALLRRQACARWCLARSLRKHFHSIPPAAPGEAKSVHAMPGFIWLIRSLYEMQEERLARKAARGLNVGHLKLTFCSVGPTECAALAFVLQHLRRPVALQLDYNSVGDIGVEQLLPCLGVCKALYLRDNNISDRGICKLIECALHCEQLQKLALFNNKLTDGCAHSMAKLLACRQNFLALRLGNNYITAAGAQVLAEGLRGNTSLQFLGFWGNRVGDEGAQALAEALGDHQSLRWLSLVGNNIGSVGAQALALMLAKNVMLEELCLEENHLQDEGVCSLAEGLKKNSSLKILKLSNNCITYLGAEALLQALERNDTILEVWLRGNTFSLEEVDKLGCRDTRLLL
T4 sequence (Q14457 whole entry): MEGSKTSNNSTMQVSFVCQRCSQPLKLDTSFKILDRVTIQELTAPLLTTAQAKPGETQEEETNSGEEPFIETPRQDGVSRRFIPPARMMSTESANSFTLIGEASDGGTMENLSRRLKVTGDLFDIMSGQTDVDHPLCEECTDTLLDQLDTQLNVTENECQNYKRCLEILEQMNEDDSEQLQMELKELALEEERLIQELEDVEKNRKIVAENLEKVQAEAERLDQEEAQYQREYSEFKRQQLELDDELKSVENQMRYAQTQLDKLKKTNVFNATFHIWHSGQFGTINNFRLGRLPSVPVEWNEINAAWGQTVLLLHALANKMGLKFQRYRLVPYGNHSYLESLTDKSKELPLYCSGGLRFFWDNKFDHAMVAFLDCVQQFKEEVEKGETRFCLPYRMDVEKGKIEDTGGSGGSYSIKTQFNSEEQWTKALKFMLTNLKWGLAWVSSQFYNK

binding result (NOD2 (full length)): binds | binding result (RIG-I): binds | binding result (NOD1): binds | binding result (Beclin 1): binds | binding result (ATG14L): binds
B1: IRGM (human IRGM, isoform d) (other, UniProt A1A4Y4-4 1-202, looked up)
chain: MEAMNVEKASADGNLPEVISNIKETLKIVSRTPVNITMAGDSGNGMSTFISALRNTGHEGKASPPTELVKATQRCASYFSSHFSNVVLWDLPGTGSATTTLENYLMEMQFNRYDFIMVASAQFSMNHVMLAKTAEDMGKKFYIVWTKLDMDLSTGALPEVQLLQIRENVLENLQKERLACHEKYLKSTPENSTRPRNINLCS
notes: Stood in cell lysates as GFP-, Flag- or V5-tagged protein or as the endogenous protein, depending on the experiment; Isoform d is said to be used in all experiments; also called GFP-IRGM; GFP-IRGMd
binding result [1]: binds
